Assay results taken from patent US20240101645A1 (HENRY M JACKSON FOUNDATION FOR THE ADVANCEMENT OF MILITARY …, published 2024).

T1: MERS-CoV spike antigens (bead panel) (MERS-CoV, UniProt K9N5Q8 18-1296)
T1 sequence: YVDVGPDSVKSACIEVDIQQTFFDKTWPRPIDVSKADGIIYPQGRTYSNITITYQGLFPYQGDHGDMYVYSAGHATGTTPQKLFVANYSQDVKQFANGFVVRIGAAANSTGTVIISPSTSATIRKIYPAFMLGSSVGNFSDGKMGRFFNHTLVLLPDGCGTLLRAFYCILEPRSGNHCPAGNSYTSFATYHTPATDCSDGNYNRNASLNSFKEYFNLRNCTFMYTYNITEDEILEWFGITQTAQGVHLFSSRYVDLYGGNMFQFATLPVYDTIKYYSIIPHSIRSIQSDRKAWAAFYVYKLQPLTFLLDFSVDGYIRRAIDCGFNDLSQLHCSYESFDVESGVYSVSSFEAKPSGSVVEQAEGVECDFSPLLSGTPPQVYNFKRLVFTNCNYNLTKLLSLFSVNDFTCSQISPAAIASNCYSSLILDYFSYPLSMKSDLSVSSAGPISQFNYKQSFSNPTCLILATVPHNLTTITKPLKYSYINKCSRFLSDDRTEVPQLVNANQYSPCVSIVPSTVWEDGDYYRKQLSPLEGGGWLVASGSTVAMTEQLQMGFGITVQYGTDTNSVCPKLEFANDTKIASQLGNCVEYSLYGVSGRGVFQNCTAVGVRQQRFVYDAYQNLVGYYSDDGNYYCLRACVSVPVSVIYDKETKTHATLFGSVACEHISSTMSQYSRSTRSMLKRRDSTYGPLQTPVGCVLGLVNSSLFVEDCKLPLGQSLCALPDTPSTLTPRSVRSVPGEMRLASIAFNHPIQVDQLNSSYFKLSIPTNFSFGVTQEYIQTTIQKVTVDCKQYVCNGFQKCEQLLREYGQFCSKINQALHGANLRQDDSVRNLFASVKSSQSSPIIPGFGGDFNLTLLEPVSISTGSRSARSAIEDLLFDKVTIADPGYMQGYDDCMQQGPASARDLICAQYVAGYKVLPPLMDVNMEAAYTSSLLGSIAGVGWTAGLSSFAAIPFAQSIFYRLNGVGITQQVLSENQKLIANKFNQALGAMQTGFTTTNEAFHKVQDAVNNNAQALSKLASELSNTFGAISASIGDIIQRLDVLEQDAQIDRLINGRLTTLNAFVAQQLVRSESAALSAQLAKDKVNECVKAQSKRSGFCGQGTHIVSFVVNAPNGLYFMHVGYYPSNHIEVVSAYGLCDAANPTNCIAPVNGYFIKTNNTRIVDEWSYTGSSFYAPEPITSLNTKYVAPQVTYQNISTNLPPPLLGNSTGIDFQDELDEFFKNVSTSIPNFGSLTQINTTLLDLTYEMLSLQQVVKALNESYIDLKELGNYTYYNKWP


Target: T2, SARS-CoV-2 NTD (1-290) (SARS-CoV-2, UniProt P0DTC2 14-290)
T2 construct: range 1-290
Assay: BLI, 1:1 model

Binder	Kd [pM]
COV_2035 (antibody, V domains shown, human IgG1) VH: QVQLVQSGAEVKKPGASVKVSCKVSGYTLPELSIHWVRQAPGKGLEWLGGFDPEDGKIIYAQKFQGRVTMTEDTSTDTAYMELSSLRSEDTAVYYCATSPAVVERGWFDPWGQGTLVTVSS VL: QSALTQPPSASGSPGQSVTISCTGTSSDVGGYNYVSWYQQHPGKAPKLMIYEVSKRPSGVPDRFSGSKSGNMASLTVSGLQAEDEANYYCSSYAGSKRVFGGGTKLTVL	< 1
COV_2037 (antibody, V domains shown, human IgG1) VH: QVQLVQSGAEVKKPGASVKVSCKVSGYTLTELSMHWVRQAPGKGLEWMGGFDPEDAETIYAQKFQGRVTMTEDTSTDTAYMELSSLRSEDTAVYYCATAGAITGTPTNYSYYYGMDFWGQGTTVTVSS VL: not shown	< 1
COV_2054 (antibody, V domains shown, human IgG1) VH: EVQLVESGGGVLQPGRSLRLSCAASGFTFNNYALHWVRQAPGKGLEWVAVISYDGSSKYYADSVRGRLTISRDNSRNTLYLQMNSLRPEDTAIYYCARDGDGLWLGESFYFDDWGQGTLVTVSS VL: DIQMTQSPSTLSASVGDRVIITCRASQSISSWLAWYQQKPGKAPKLLIYEASTLQSGVPSRFSGSGSGTEFTLTISSLQPDDSATYYCQQYNSYPVHFSQGTKLEIK	< 1
COV_2028 (antibody, V domains shown, human IgG1) VH: QVQLQESGPGLVKPSGTLSLTCVVSGGSISSSNWWSWVRQPPGKGLEWIGEIYHSGSTNYNPSLKSRVTISVDKSKNQFSLRLTSVTAADTAVYYCARGWNYDYWGQGTLVTVSS VL: QSALTQPASVSGSPGQSITIACTGTSSDVGSYNLVSWYQQHPGKAPKLMIYEVSKRPSGLSNRFSGSKSGNTASLTISGLQAEDEADYYCYSYAGSSTWVFGGGTKLTVL	40.7
COV_2008 (antibody, V domains shown, human IgG1) VH: QVRVVQSGAEVKNPGASVKVSCKVSGYTLTELSIHWVRQAPGNGLEWMGGFDPEDGETIYAQKFQGRVTMTEDTSTDTAYMELSSLRSDDTAVYYCATAGAITGTPRNFYYYYGMDVWGQGTTVTVSS VL: not shown	< 1

Target: T1, MERS-CoV spike antigens (bead panel)
Assay: multiplex bead assay

Binder	binding result
COV_1118 (antibody, V domains shown, human IgG1) VH: EVQLVESGGGLVKPGGSLRLSCAASGFSFSNYNMNWVRQAPGKGLEWVSYISSSSSYIYYADSVKGRFTISRDNAKNSLYLQMNSLRGEDTAVYSCAREASGAYYFDRSGYFDYWGQGTLVTVSP VL: not shown	no binding
COV_1154 (antibody, V domains shown, human IgG1) VH: EVQLVESGGGLVKPGGSLRLSCAASGFRFSDYNMNWVRQAPGKGLEWVSYISSSSSYIYYADSVKGRFTISRDNAKNSLYLQMNSLRGEDTAVYSCAREASGAYYFDRSGYFDYWGQGTLVTVSP VL: DIQMTQSPSTLSASVGDRVTITCRASQSISSWLAWYQQKPGKAPNLLIYKASSLESGVPSRFSGSGSGTEFTLTISSLQPYDFATYYCQQYNSYPWAFGQGTKVEMKR	no binding
COV_1136 (antibody, V domains shown, human IgG1) VH: EVQLVESGGGLVKPGGSLRLSCAASGFTFSDCNMNWVRQAPGKGLEWVSSISSRSSYIYYADSVKGRFTISRDNAKNSLYLQMNSLRAEDTAVYSCAREASGAYYFDRSGYFDYWGQGTLVTVSP VL: DIQMTQSPSTLSASVGDRVTITCRASQSISSWLAWYQQKPGKAPNLLIYKASSLESGVPSRFSGSGSGTEFTLTISSLQPDDFATYYCQQYNTYPWTFGQGTKVEIKR	no binding
COV_2032 (antibody, V domains shown, human IgG1) VH: EVQLVESGGGLVQPGGSLRLSCAASGFTFTTYWMHWVRQAPGKGLVWVSRIKTDGSSTNYADSVKGRFTISRDNAKNMLYLQMNSLRAEDTAVYYCAREGPVSIVYFDYWGQGTLVTVSS VL: not shown	no binding
COV_3069 (antibody, V domains shown, human IgG1) VH: EVQLVESGGGLVKPGGSLRLSCAASGFTFGSYTMNWVRQAPGKGLEWVSSIDTTSSSIYYADSLKGRFAISRDSAKNSLYLQMNRLRAEDTAVYYCARGNGHSYDSSGYHYGMYFDYWGQGTLVTVSS VL: DIQMTQSPSTLSASVGDRVTITCRASQSISRWLAWYQQKPGKAPKLLIYEVSSLENGVPSRFSGSRSGTEFTLTISSLQPDDFAIYYCQQYNTYSRTFGQGTKVEIKR	no binding
COV_1025 (antibody, V domains shown, human IgG1) VH: QVQLVESGGGVVQPGRSLRLSCAASGFTFNTYAMHWVRQAPGKGLEWVAIISYDGGNKYYADSMKGRFTISRDNSKNTLYLQMNSLRAEDTAVYYCARARTGNYYYGMDVWGQGTTVTVSS VL: not shown	no binding
COV_3053 (antibody, V domains shown, human IgG1) VH: EVQLVESGGGLVQPGRSLRLSCTASGFTLGDYAMTWVRQAPGKGLEWLGIIRNKRYGETKQYAASVKGRFTFSRDDSKGIGYLQRLSLKIEDTGVYYCTREHIVRDDAFDVWGQGTTVTVSS VL: DIVMTQSPDSLAVSLGERATINCKSSQSVLYSSNNKNYIAWYQQRPGQPPKLLIYWTSTRASGVPDRFSGSGSGTDFALTISSLQAEDVAVYYCQQYYTIPRTFGQGTKVEIK	no binding
COV_1177 (antibody, V domains shown, human IgG1) VH: QVQLVESGGGVVQPGRSLRLSCAASGFTFSSYGMHWVRQAPGKGLEWVAVIWYDGSNKYYADSVKGRFTISRDNSKNTLYLQMNSLRAEDTAVYYCARDPLGAVAGYFDYWGQGTLVTVSS VL: SYVLTQPPSVSVAPGQTARITCGGNNIGSKSVHWYQQKPGQAPVLVVYDDSDRPSGIPERFSGSNSGNTATLTISRVEAGDEADYYCQVWDSSSDHHWVFGGGTKLTVLG	no binding
COV_3129 (antibody, V domains shown, human IgG1) VH: QVQLQQWGAGLLKPSDTLSLTCAANGGGSFSGYYLGYIRQSPGKGLEWIGEINHNGGTNYNPSLKSRVTISGDTSKNQFSLKLSSVTAADTAIYYCARSRDSSLGDAVWYEYWGQGTLITVSS VL: EIVLTQSPATLSLSPGERATLSCRASQSVDIYLAWYQQRPGQAPRLLISDASKRATGVPARFSGSGSGTDFTLTINSLEPEDFAIYYCQQRRDWPINFGQGTRLEIKR	no binding
COV_2205 (antibody, V domains shown, human IgG1) VH: EVQLVESGGGLVKPGGSLRLSCAASGFTFSDYYMIWIRQAPGEGLEWVSYISSRSSYTNYADSVKGRFTISRDNARNSLYLQMNSLRAEDTAVYYCARGQHDLLTGYYSWAYFDYWGQGTLVTVSS VL: not shown	no binding
COV_1145 (antibody, V domains shown, human IgG1) VH: QVQLVESGGGVVQPGRSLRLSCAASGFTFSSYGMHWVRQAPGKGLEWVAVIWYDGSNKYYADSVKGRFTISRDNSKNTLYLQMNSLRVEDTAVYYCAREGQLGATGLDCWGQGTLVSVSS VL: SYELTQPPSVSVSPGQTARITCSGDALPKKYAYWYQQKSGQAPVLVIYEDSKRPSGIPERFSGSSSGTMATLTISGAQVEDEADYYCYSTDNSGNHWVFGGGTKLTVLG	no binding
COV_2215 (antibody, V domains shown, human IgG1) VH: EVQLVESGGGLVKPGGSLRLSCAASGFTFSHAWMSWVRQAPGKGLEWVGRIKSKTDGGTADYAAPVKGRFTISRDDSKNTLYLQMNSLKTEDTAVYYCATIRYYYDSSAYLNDAFDIWGQGTMVTVSS VL: SYELTQPPSVSVSPGQTARITCSGDALPKKYAYWYQQKSGQAPVLVIYEDSKRPSGIPERFSGSSSGTMATLTISGAQVEDEADYYCYSTDSSGNHRVFAGGTKLTVLG	no binding
COV_2169 (antibody, V domains shown, human IgG1) VH: EVQLVESGGGVVQPGRSLRLSCAASGFTFSRYAMHWVRQAPGKGLEWVAVISYEGSNKYYADSVKGRFTISRNNSNNTLSLQMNSLRPDDTAVYYCVRSGGHYFDAFDLWGQGTMVTVSS VL: EIVLTQSPGTLSLSPGERATLSCRASQSVSRNYVAWYQQKPGQAPRLLIYGASSRATGIPDRFSGSGSGTDFTLTISRLEPEDFALYYCQQYGSSYTFGQGTKLEIKR	no binding
COV_1184 (antibody, V domains shown, human IgG1) VH: QVQLQQWGAGLLKPSETLSLTCAVYGGSFSGYYWSWIRQPPGKGLEWIGEINHSGNTTYNPSLKSRVTISVDTSKNQFSLKLSSVTAADTAVYYCARGLVITYYYDSSGKPFDPWGQGTLVTVSS VL: not shown	no binding
